Results on two molecules are retold here after paper PMC4889915 (Nucleic Acids Research, 2016).

The labels stand for the following.
T1: AtTRB3-6xHis (Arabidopsis thaliana, UniProt Q9M2X3 1-295)
T1 sequence (looked up): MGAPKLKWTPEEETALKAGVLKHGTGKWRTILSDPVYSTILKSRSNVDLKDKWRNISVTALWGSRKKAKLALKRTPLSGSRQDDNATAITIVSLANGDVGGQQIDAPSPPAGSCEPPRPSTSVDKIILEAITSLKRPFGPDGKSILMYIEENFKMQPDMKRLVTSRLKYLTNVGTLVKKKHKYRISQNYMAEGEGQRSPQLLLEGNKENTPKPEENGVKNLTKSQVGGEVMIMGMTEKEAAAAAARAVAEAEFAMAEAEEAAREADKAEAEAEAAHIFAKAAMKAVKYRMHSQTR

T2: GST-HDA6 (Arabidopsis thaliana, UniProt Q9FML2 1-471)
T2 sequence (looked up): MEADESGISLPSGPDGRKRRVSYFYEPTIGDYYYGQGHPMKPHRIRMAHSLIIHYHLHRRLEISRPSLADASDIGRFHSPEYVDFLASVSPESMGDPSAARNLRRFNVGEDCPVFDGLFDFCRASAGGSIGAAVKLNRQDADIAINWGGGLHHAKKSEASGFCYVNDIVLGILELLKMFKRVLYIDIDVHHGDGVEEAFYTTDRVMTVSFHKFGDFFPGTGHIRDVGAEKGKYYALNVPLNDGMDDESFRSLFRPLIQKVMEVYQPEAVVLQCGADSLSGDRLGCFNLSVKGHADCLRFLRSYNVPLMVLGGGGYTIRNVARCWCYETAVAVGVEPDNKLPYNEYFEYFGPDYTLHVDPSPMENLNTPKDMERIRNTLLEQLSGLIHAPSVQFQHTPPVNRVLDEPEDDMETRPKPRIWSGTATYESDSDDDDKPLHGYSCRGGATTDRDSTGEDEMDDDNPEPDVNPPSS

B1: GST-HDT4 (full-length) (enzyme, Arabidopsis thaliana, UniProt Q9M4T3 1-203, looked up)
chain: MEFWGIEIKPGKPFKVIQKDGFMVHASQVTLGDVEKVKKDETFAVYVKIGDDENGFMIGNLSQKFPQFSIDLYLGHEFEISHNSTSSVYLIGYRTFDAFDELDEEIDSDSELDEYMEQQIAALPQNEINPEEDDESDSDEMGLDEDDDSSDEEDVEAEAPLKVAPPSKKMPNGAFEIAKGGKKNKSSGGKKRCPFPCGPSCKK
B2: AtTRB2-6xHis (natural protein, Arabidopsis thaliana, UniProt Q9FJW5 1-299, looked up)
chain: MGAPKQKWTPEEEAALKAGVLKHGTGKWRTILSDTEFSLILKSRSNVDLKDKWRNISVTALWGSRKKAKLALKRTPPGTKQDDNNTALTIVALTNDDERAKPTSPGGSGGGSPRTCASKRSITSLDKIIFEAITNLRELRGSDRTSIFLYIEENFKTPPNMKRHVAVRLKHLSSNGTLVKIKHKYRFSSNFIPAGARQKAPQLFLEGNNKKDPTKPEENGANSLTKFRVDGELYMIKGMTAQEAAEAAARAVAEAEFAITEAEQAAKEAERAEAEAEAAQIFAKAAMKALKFRIRNHPW

Common to all, as to assay: pull-down
The assay “AtTRB2-6xHis” has as its target B2.
A further assay addresses T1, AtTRB3-6xHis.
A further assay deals with T2, GST-HDA6.

On to B1, for which the binding result with AtTRB2-6xHis and in the assay with AtTRB3-6xHis was “binds” throughout. Regarding B2, in the assay with GST-HDA6, the binding result is listed as “binds”.
